Measured values reported in patent US20260224724A1, “GLYCOSYNTHASE VARIANTS FOR ANTIBODY-DRUG CONJUGATE ENGINEERING” (OBI Pharma, Inc., priority 2022, published 2026).

Legend:
[1] = tested on: Herceptin-GlcNAc; assay: Transglycosylation of glycan-oxazoline to Herceptin-GlcNAc, monitored by HPLC; assay type: biochemical; conditions: for 1N-G2S2 (hemi-glycosylated) / 2N-G2S2 (fully glycosylated) / GlcNAc(F) (unreacted acceptor) / 1N-Glycan / 2N-Glycan / GlcNAc(F): acceptor Herceptin-GlcNAc; for 1N-G2S2 (hemi-glycosylated) / 2N-G2S2 (fully glycosylated) / GlcNAc(F) (unreacted acceptor): NSCT-oxa, best conditions (20:1 EndoSz-D234M, 150:1 EndoSd-D232M)
Method: (§1) In general procedures, mAb-GlcNAc/mAb-GlucNAc-F (5 mg) was incubated with glycan-oxa with molar ratio 1:20 and 1:150 (mAb-GlcNAc:NSCT-oxa) by EndoSz-D234M (167 μg) or EndoSd-D232M (1002 μg), respectively, at 30° C. for 20 minutes in a MOPS buffer (50 mM, pH 6.7), to final volume 500 μL. There were some slight modifications according to experiment purposes and designs (see result section). HLPC was employed to monitor the transglycosylation efficiency.
(§2) The glycosynthase activity was analyzed by HPLC (Waters e2695) using 2.1×150 mm UPLC Glycoprotein Amide Column (Waters) under two different buffers (Buffer A, ddH2O/0.3% v/v HFIP (1,1,1,3,3,3-Hexafluoro-2-propanol), 0.1% v/v TFA; Buffer B, ACN, 0.3% v/v HFIP, 0.1% v/v TFA) with the gradient as Table 4.
(§3) After ensuring the baseline stability by injection water blank, the process was started by 2 μL sample injection. In the process duration (29 mins), the flow rate was 0.2 mL/min under the column temperature of 65° C. and sample tray temperature of 5° C.

[2] = tested on: Herceptin-GlcNAc-F; assay: Transglycosylation of glycan-oxazoline to fucosylated Herceptin-GlcNAc-F, monitored by HPLC; assay type: biochemical; conditions: for GlcNAc(F) (unreacted acceptor) / 1N-G2S2 (hemi-glycosylated) / 2N-G2S2 (fully glycosylated, Herceptin-2N-G2S2F): NSCT-oxa, best conditions; for 1N-G2S2 (hemi-glycosylated) / 2N-G2S2 (fully glycosylated, Herceptin-2N-G2S2F) / 1N-Glycan / 2N-Glycan / GlcNAc(F): acceptor Herceptin-GlcNAc-F
Method: as §1, §2, §3

B1: EndoSz-D234M: D234M glycosynthase mutant of EndoSz from Streptococcus equi subsp. Zooepidemicus Sz105, SEQ ID NO 2 (protein, listed as Streptococcus equi)
chain: MVAILAAQHDSLIRVKAEDKLVQTSPSVSAIDALHYLSENSKKEFKEELSKVEKAQPEKLKEIVSKAQQADKQAKTLAEMKVPEKIPMKPLKGPLYGGYFRTWHDKTSDPAEKDKVNSMGELPKEVDLAFVFHDWTKDYSLFWQELATKHVPTLNKQGTRVIRTIPWRFLAGGDHSGIAEDAQKYPNTPEGNKALAKAIVDEYVYKYNLDGLDVMIERDSIPKVNKEESKEGIERSIQVFEEIGKLIGPKGADKSRLFIMDSTYMADKNPLIERGAPYIDLLLVQVYGTQGEKGGFDNANHKAVDTMEERWESYSKYIRPEQYMVGFSFYEEKANSGNLWYDVNVEDDTNPNIGSEIKGTRAERYAKWQPKTGGVKGGIFSYGIDRDGVAHPKKNGPKTPDLDKIVKSDYKVSKALKKVMENDKSYELIDQKDFPDKALREAVIAQVGSRRGNLERFNGTLRLDNPDIKSLEGLNKLKKLAKLELIGLSQITKLDSSVLPENIKPTKDTLVSVLETYKNDDRKEEAKAIPQVALTISGLTGLKELNLAGFDRDSLAGIDAASLTSLEKVDLSSNKLDLAAGTENRQILDTMLATVTKHGGVSEKTFVFDHQKPTGLYPDTYGTKSLQLPVANDTIDLQAKLLFGTVTNQGTLINSEADYKAYQEQEIAGHRFVDSSYDYKAFAVTYKDYKIKVTDSTLGVTDHKDLSTSKEETYKVEFFSPINSTKPVHEAKIVVGEEKTMMVNLAEGATIIGGDADPTNAKKVFDGLLNNDTTTLSTSNKASIIFELKEPGLVKHWRFFNDSKISKADYIKEAKLEAFVGHLEDSSKVKDSLEKSTEWVTVSDYSGEAQEFSQPLNNIGAKYWRITIDNKKSQYGYVSLPELQIIGHRLPEAATVMTTMAAAEELSQQKDKFSQEQLKELEVKVAALKAALDNKMFNADTINASFADVKAYIDKLLADAAGKKTLGKATKEAQPVATDAKEKAESENPKADHHHHHH
Relative transglycosylation activity of EndoSz mutants ([1]; EndoSz-D234M set to 100%, NSCT-oxa donor, best conditions): 100%
1N-G2S2 (hemi-glycosylated) [1]: 4.8%
2N-G2S2 (fully glycosylated) [1]: 91.85%
GlcNAc(F) (unreacted acceptor) [1]: 3.35%
1N-Glycan ([1]; glycan G0, 20:1): 2.58%
2N-Glycan ([1]; glycan G0, 20:1): 96.50%
GlcNAc(F) ([1]; glycan G0, 20:1): 0.91%
1N-Glycan ([1]; glycan G2, 20:1): 4.52%
2N-Glycan ([1]; glycan G2, 20:1): 94.87%
GlcNAc(F) ([1]; glycan G2, 20:1): 0.61%
1N-Glycan ([1]; glycan M3 (40eq)): 6.51%
2N-Glycan ([1]; glycan M3 (40eq)): 92.37%
GlcNAc(F) ([1]; glycan M3 (40eq)): 1.11%
GlcNAc(F) (unreacted acceptor) [2]: 1.72%
1N-G2S2 (hemi-glycosylated) [2]: 4.00%
2N-G2S2 (fully glycosylated, Herceptin-2N-G2S2F) [2]: 94.29%
1N-Glycan ([2]; glycan type G0F): 2.45%
2N-Glycan ([2]; glycan type G0F): 97.55%
GlcNAc(F) ([2]; glycan type G0F): 0.00%
1N-Glycan ([2]; glycan type G2F): 2.64%
2N-Glycan ([2]; glycan type G2F): 97.14%
GlcNAc(F) ([2]; glycan type G2F): 0.21%
1N-Glycan ([2]; glycan type M3F): 4.95%
2N-Glycan ([2]; glycan type M3F): 94.44%
GlcNAc(F) ([2]; glycan type M3F): 0.62%

B2: EndoSd-D232M: D232M glycosynthase mutant of EndoSd from Streptococcus dysgalactiae subsp. Dysgalactiae, SEQ ID NO 1 (protein, listed as Streptococcus dysgalactiae)
chain: MGTILGTHHDSLISVKAEEKITQVSQTSTSIDDLHYLSENSKKEFKEELSKEKVPEKVKEILSKAQQANKQAQELAEMKVPDKIPMKPLNGPLYGGYFRTWHDKTSDPLEKDKVNSMGELPKEVDLAFVFHDWTKDYSLFWKELATKHVPKLNKQGTRVIRTIPWRFLAGGDNSGIAEDASKYPNTPEGNKALAKAIVDEYVYKYNLDGLDVMIEHDSIPKVNGEASDENLKRSIDVFEEIGKLIGPKGADKSRLFIMDSTYMADKNPLIERGAPYIDLLLVQVYGSQGEQGEFQNDTKSVTKTPEERWQGYSKYIRPEQYMIGFSFYEEKAGSGNLWYDINARKDEDTANGINDDITGTRAERYARWQPKTGGVKGGIFSYAIDRDGVAHQPKQIAEKDKQSVKNNRPLISEITDNIFHSNYSVSKTLKTVMLKDKAYDLIDEKDFPDKALREAVMAQVGTRKGDLERFNGTLRLDNPAIQSLEGLNKFKKLAQLDLIGLSRIIKLDQSVLPANMKPGKDPLETVLETYKKNGKEEPAIIPPVSLTVSGLTGLKELDLSGFDRETLAGIDAATLTSLEKVDISDNKLDLAPKTENRQIFDVMLSTVNNNAGISEQSIKFDNQKPAGNYPQTYGATNLQLPVRQEKIDLQHQLLFGTITNQGTLINSEADYKTYRNQKIAGRNFVDPDYPYNNFKVSHDNYTVKVTDSTLGTTTDKMLATDKEETYKVDFFSPTDKTKAVHTAKVIVGDEKTMMVNLAEGATVIKSENDENAQKVFNGIMEYNPLSFNNKSSIIFEIKDPSLAKYWRLFNDSSKDKKDYIKEAKLEVFTGQLNAEADVKTILEKPDNWVTVSTYSGEEKVFSHSLDNISAKYWRVTVDNKKDQYGYVSLPELQILGYPLPNADTIMKTVTVAKELSQQKDKFPQQLLDESTAKEAVVEASLNSKLFDTGVINTNVEALKNVVDECLAYEKNKETAFKATEDYRAAVNGVKAESVTVEEMAQLKDLIGKAAHLNSKIDAKLADREYDKDLLGLIGELTNITRTVKSFVKHHHHHH
Relative transglycosylation activity of EndoSd mutants ([1]; EndoSd-D232M set to 100%, NSCT-oxa donor, best conditions): 100%
1N-G2S2 (hemi-glycosylated) [1]: 2.11%
2N-G2S2 (fully glycosylated) [1]: 97.88%
GlcNAc(F) (unreacted acceptor) [1]: 0%
Herceptin-2N-G2S2 generated ([1]; molar ratio 20:1 (NSCT-oxa/antibody), final condition of EndoSz-D234M): 46.06%
GlcNAc(F) (unreacted acceptor) [2]: 0%
1N-G2S2 (hemi-glycosylated) [2]: 3.17%
2N-G2S2 (fully glycosylated, Herceptin-2N-G2S2F) [2]: 94.75%
